# Assay results reported in US20060257938A1, “Method of screening for drugs that block ligand binding to a lipid binding protein” (priority 2005, published 2006).
# Changes are numbered by the printed parent chain.
# B1: 38Y 74F 72A (protein, listed as Rattus norvegicus)
# chain: AFDGTWKVDRNENYEKFMEKMGINVVKRKLGAHDNLKYTITQEGNKFTVKESSNFRNIDVVFELGVDFAYSAAFGTELTGTWTMEGNKLVGKFKRVDNGKELIAVREISGNELIQTYTYEGVEAKRIFKKE
# modifications: PEPTIDE (1)...(131) wild-type rat intestinal fatty acid binding protein
# B2: 73W 74T (protein, listed as Rattus norvegicus)
# chain: B1 chain with Y38L, A72L, A73W, F74T
# modifications: PEPTIDE (1)...(131) wild-type rat intestinal fatty acid binding protein
# B3: 72S 73W 74N (protein, listed as Rattus norvegicus)
# chain: B1 chain with Y38L, A72S, A73W, F74N
# modifications: PEPTIDE (1)...(131) wild-type rat intestinal fatty acid binding protein
# B4: 72A 73W 74E (protein, listed as Rattus norvegicus)
# chain: B1 chain with Y38L, A73W, F74E
# modifications: PEPTIDE (1)...(131) wild-type rat intestinal fatty acid binding protein
# B5: 73W 72A 74F (protein, listed as Rattus norvegicus)
# chain: B1 chain with Y38L, A73W
# modifications: PEPTIDE (1)...(131) wild-type rat intestinal fatty acid binding protein
# B6: 72V 73L 74W (protein, listed as Rattus norvegicus)
# chain: B1 chain with Y38L, A72V, A73L, F74W
# modifications: PEPTIDE (1)...(131) wild-type rat intestinal fatty acid binding protein
# B7: 21F 78I 102F 72A (protein, listed as Rattus norvegicus)
# chain: B1 chain with M21F, Y38L, F74D, L78I, L102F
# modifications: PEPTIDE (1)...(131) wild-type rat intestinal fatty acid binding protein
# B8: 73W 74I (protein, listed as Rattus norvegicus)
# chain: B1 chain with Y38L, A72L, A73W, F74I
# modifications: PEPTIDE (1)...(131) wild-type rat intestinal fatty acid binding protein
# B9: 72A 73W 74S (protein, listed as Rattus norvegicus)
# chain: B1 chain with Y38L, A73W, F74S
# modifications: PEPTIDE (1)...(131) wild-type rat intestinal fatty acid binding protein
# B10: 72T 73W 74E (protein, listed as Rattus norvegicus)
# chain: B1 chain with Y38L, A72T, A73W, F74E
# modifications: PEPTIDE (1)...(131) wild-type rat intestinal fatty acid binding protein
# B11: 72T 73W 74S (protein, listed as Rattus norvegicus)
# chain: B1 chain with Y38L, A72T, A73W, F74S
# modifications: PEPTIDE (1)...(131) wild-type rat intestinal fatty acid binding protein
# B12: 72S 73W 74S (protein, listed as Rattus norvegicus)
# chain: B1 chain with Y38L, A72S, A73W, F74S
# modifications: PEPTIDE (1)...(131) wild-type rat intestinal fatty acid binding protein
# B13: 72S 73W 74E (protein, listed as Rattus norvegicus)
# chain: B1 chain with Y38L, A72S, A73W, F74E
# modifications: PEPTIDE (1)...(131) wild-type rat intestinal fatty acid binding protein
# B14: 72T 74V (protein, listed as Rattus norvegicus)
# chain: B1 chain with Y38L, A72T, F74V
# modifications: PEPTIDE (1)...(131) wild-type rat intestinal fatty acid binding protein
# B15: 60T 104T 115W 74F 72A (protein, listed as Rattus norvegicus)
# chain: B1 chain with Y38L, V60T, A104T, Q115W
# modifications: PEPTIDE (1)...(131) wild-type rat intestinal fatty acid binding protein
# B16: 72G 73W 74E (protein, listed as Rattus norvegicus)
# chain: B1 chain with Y38L, A72G, A73W, F74E
# modifications: PEPTIDE (1)...(131) wild-type rat intestinal fatty acid binding protein
# B17: 21F 78V 102V 72A (protein, listed as Rattus norvegicus)
# chain: B1 chain with M21F, Y38L, F74D, L78V, L102V
# modifications: PEPTIDE (1)...(131) wild-type rat intestinal fatty acid binding protein
# Experiment: Probe fluorescence ratio response to arachidonic acid relative to ADIFAB2
# Type: binding
# Details: arachidonic acid; response relative to ADIFAB2
# Procedure, shortened: (§1)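 Fluorescently labeled rat intestinal FABP variants were read at two emission wavelengths, near the unbound maximum (about 420 to 480 nm) and the FFA-bound maximum (about 495 to 580 nm). R = Fλ1/Fλ2 after subtracting probe-free intensity; ΔR = R+agent − R0, normalized to ADIFAB2 (rI-FABP-L72A).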
row,Molecule,DR/DR AA
1,B1,0.605
2,B2,1.456
3,B3,3.770
4,B4,4.093
5,B5,3.378
6,B6,0.500
7,B7,4.836
8,B8,0.757
9,B9,3.211
10,B10,2.442
11,B11,4.129
12,B12,3.545
13,B13,3.751
14,B14,2.680
15,B15,0.873
16,B16,4.229
17,B17,4.511

# Experiment: Probe fluorescence ratio response to palmitic acid relative to ADIFAB2
# Type: binding
# Details: response relative to ADIFAB2
# Procedure, shortened: as §1
row,Molecule,DR/DR PA
1,B1,1.397
2,B2,3.883
3,B3,3.333
4,B4,4.937
5,B5,3.264
6,B6,1.276
7,B7,2.383
8,B8,1.884
9,B9,4.039
10,B10,3.842
11,B11,4.155
12,B12,3.536
13,B13,4.210
14,B14,3.149
15,B15,1.920
16,B16,3.944
17,B17,2.756

# Experiment: Probe fluorescence ratio response to palmitoleic acid relative to ADIFAB2
# Type: binding
# Details: response relative to ADIFAB2
# Description: (§2) In an alternate preferred embodiment, the protein is rI-FABP that has Ala substituted for Leu at position 72 (rI-FABP-L72A) with the resulting probe named ADIFAB2. […] Other probes useful in embodiments of the invention are shown in Tables 1-6 and are also described in U.S. application Ser. No. 11/085,792, filed Mar. 21, 2005 which is incorporated herein by reference. The indicated substitutions are with reference to the ADIFAB protein of SEQ ID NO: 2.
# (§3) ADIFAB2 also has an altered spectral response, making it especially useful for measurements of FFAu in blood samples (Apple et al, Clinical Proteomics, (2004) 1:41-44, U.S. patent application Ser. No. 10/670,958). The wavelengths at the maximum intensities emitted by these fluorescently-labeled I-FABP's in the absence of FFA is about 420 to 480 nm. The emission wavelengths at the maximum intensities emitted by these fluorescently-labeled I-FABP's with FFA bound are between about 495 to 580 nm. Experiments typically involve measuring the fluorescence response within both emission maxima or at wavelengths for which the effect of interfering molecules such as hemoglobin can be eliminated as described in U.S. application Ser. No. 10/670958 and PCT/US2004/030521 and the calculation of the ratio ‘R’ of the two fluorescence intensities. The baseline value for this ratio, measured in the absence of analyte, is designated R0.
# (§4) The intensity ratio (“R” value) is determined as follows. The ratio is calculated using the following formula: R=Fλ1/Fλ2 wherein, Fλ1 is the measured fluorescence intensities (intensity of sample with probe present minus intensity of sample without probe present) at wavelength 1 and Fλ2 is the measured fluorescence intensities (intensity of sample with probe present minus intensity of sample without probe present) at wavelength 2. Then, for a given probe, ΔR, the difference in R value between the measurement in the presence of the test compound (agent) and in the absence of the test compound (agent), is calculated as follows: ΔR=R+agent−R0 In some embodiments, the ΔR value may then be compared to some reference, for example, an agent with a known affinity for a given probe, by ΔR/ΔRreference. Measurements of fluorescence intensities are obtained using standard techniques.
row,Molecule,DR/DR POA
1,B1,1.514
2,B2,5.818
3,B3,4.867
4,B4,6.615
5,B5,5.256
6,B6,1.710
7,B7,2.788
8,B8,2.697
9,B9,4.864
10,B10,5.353
11,B11,5.826
12,B12,4.656
13,B13,6.109
14,B14,4.074
15,B15,2.511
16,B16,6.069
17,B17,3.365

# Experiment: Probe fluorescence ratio response to oleic acid relative to ADIFAB2
# Type: binding
# Details: response relative to ADIFAB2
# Procedure, shortened: as §1
row,Molecule,DR/DR OA
1,B1,0.646
2,B2,1.902
3,B3,3.490
4,B4,3.277
5,B5,3.255
6,B6,0.648
7,B7,3.312
8,B8,0.912
9,B9,3.155
10,B10,2.200
11,B11,4.177
12,B12,2.863
13,B13,3.212
14,B14,2.957
15,B15,1.149
16,B16,2.755
17,B17,4.223

# Experiment: Probe fluorescence ratio response to linolenic acid relative to ADIFAB2
# Type: binding
# Details: response relative to ADIFAB2
# Procedure, shortened: as §1
row,Molecule,DR/DR LNA
1,B1,1.166
2,B2,3.286
3,B3,4.220
4,B4,5.422
5,B5,3.875
6,B6,1.209
7,B7,3.006
8,B8,1.325
9,B9,4.401
10,B10,3.818
11,B11,4.826
12,B12,4.147
13,B13,4.799
14,B14,3.680
15,B15,2.017
16,B16,5.501
17,B17,3.775

# Experiment: Probe fluorescence ratio response to linoleic acid relative to ADIFAB2
# Type: binding
# Details: response relative to ADIFAB2
# Procedure, shortened: as §1
row,Molecule,DR/DR LA
1,B1,0.926
2,B2,2.480
3,B3,3.977
4,B4,4.686
5,B5,3.718
6,B6,1.225
7,B7,2.872
8,B8,1.130
9,B9,3.806
10,B10,3.254
11,B11,4.612
12,B12,3.787
13,B13,4.079
14,B14,3.630
15,B15,1.609
16,B16,5.045
17,B17,4.204

# Experiment: Probe fluorescence ratio response to stearic acid relative to ADIFAB2
# Type: binding
# Details: response relative to ADIFAB2
# Description: as §2, §3, §4
row,Molecule,DR/DR SA
1,B1,0.362
2,B2,0.726
3,B3,1.255
4,B4,1.289
5,B5,1.485
6,B6,0.348
7,B7,2.367
8,B8,0.423
9,B9,1.095
10,B10,0.877
11,B11,1.620
12,B12,1.106
13,B13,1.285
14,B14,1.781
15,B15,0.633
16,B16,0.955
17,B17,3.120
